# Measured values published in US20220227832.
# B1: endogenous matriptase on OVCAR3, MDA-MB-231 and NCI-H292 cells (protein)
# chain: MGSDRARKGGGGPKDFGAGLKYNSRHEKVNGLEEGVEFLPVNNVKKVEKHGPGRWVVLAAVLIGLLLVLLGIGFLVWHLQYRDVRVQKVFNGYMRITNENFVDAYENSNSTEFVSLASKVKDALKLLYSGVPFLGPYHKESAVTAFSEGSVIAYYWSEFSIPQHLVEEAERVMAEERVVMLPPRARSLKSFVVTSVVAFPTDSKTVQRTQDNSCSFGLHARGVELMRFTTPGFPDSPYPAHARCQWALRGDADSVLSLTFRSFDLASCDERGSDLVTVYNTLSPMEPHALVQLCGTYPPSYNLTFHSSQNVLLITLITNTERRHPGFEATFFQLPRMSSCGGRLRKAQGTFNSPYYPGHYPPNIDCTWNIEVPNNQHVKVRFKFFYLLEPGVPAGTCPKDYVEINGEKYCGERSQFVVTSNSNKITVRFHSDQSYTDTGFLAEYLSYDSSDPCPGQFTCRTGRCIRKELRCDGWADCTDHSDELNCSCDAGHQFTCKNKFCKPLFWVCDSVNDCGDNSDEQGCSCPAQTFRCSNGKCLSKSQQCNGKDDCGDGSDEASCPKVNVVTCTKHTYRCLNGLCLSKGNPECDGKEDCSDGSDEKDCDCGLRSFTRQARVVGGTDADEGEWPWQVSLHALGQGHICGASLISPNWLVSAAHCYIDDRGFRYSDPTQWTAFLGLHDQSQRSAPGVQERRLKRIISHPFFNDFTFDYDIALLELEKPAEYSSMVRPICLPDASHVFPAGKAIWVTGWGHTQYGGTGALILQKGEIRVINQTTCENLLPQQITPRMMCVGFLSGGVDSCQGDSGGPLSSVEADGRIFQAGVVSWGDGCAQRNKPGVYTRLPLFRDWIKENTGV
# Molecular target: Muc16 CAR 53B6 with a V5 tag attached to its N-terminus via matriptase cleavable linker TPS6 45aa
# Sequence (chain, as listed by the source): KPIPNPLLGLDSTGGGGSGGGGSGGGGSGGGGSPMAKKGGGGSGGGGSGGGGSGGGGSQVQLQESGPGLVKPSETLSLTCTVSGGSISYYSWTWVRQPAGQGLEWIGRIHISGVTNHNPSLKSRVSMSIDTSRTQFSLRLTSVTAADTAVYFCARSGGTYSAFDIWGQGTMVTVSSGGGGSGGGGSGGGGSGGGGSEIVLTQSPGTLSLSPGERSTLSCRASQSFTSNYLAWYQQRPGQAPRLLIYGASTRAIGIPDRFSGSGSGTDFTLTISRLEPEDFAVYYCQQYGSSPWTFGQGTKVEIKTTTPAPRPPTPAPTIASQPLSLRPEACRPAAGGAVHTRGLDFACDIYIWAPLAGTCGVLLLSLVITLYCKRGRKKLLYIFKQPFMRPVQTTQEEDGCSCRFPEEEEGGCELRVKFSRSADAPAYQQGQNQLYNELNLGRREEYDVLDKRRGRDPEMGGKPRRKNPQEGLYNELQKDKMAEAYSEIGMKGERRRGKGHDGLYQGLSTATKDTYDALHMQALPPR
protein,measurement,value
B1,"removal of V5 tag (linker cleavage, flow cytometry)",the endogenous matriptase showed limited activity
